Test results taken from the supplement of paper PMC9112550, “Optimization of the antimicrobial peptide Bac7 by deep mutational scanning” (BMC Biology, 2022).

system: Escherichia coli TOP10; test: shrunken log2 fold change of peptide-encoding DNA abundance (4.5 h post-induction vs induction); higher = less antimicrobial activity (less host growth inhibition); conditions: time post-induction: 4.5 h; library: site-saturation at positions 5, 18, 19, 20
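Further: peptides expressed intracellularly from a pBAD plasmid library in pooled LB shake-flask culture, induced with 0.3% L-arabinose, DNA abundance read by NGS, three biological replicates, DESeq2 with apeglm shrinkage.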

Sequence	shrunken log2 fold change
RRIRPRPPRLPRPRPRPNFSPRP	1.08
RRIRWRPPRLPRPRPRPSWEPRP	-0.0924
RRIRPRPPRLPRPRPRPFCNPRP	-0.609
RRIRMRPPRLPRPRPRPEQKPRP	-0.0148
RRIRYRPPRLPRPRPRPRNYPRP	-1.26
RRIRPRPPRLPRPRPRPNWKPRP	-0.101
RRIRTRPPRLPRPRPRPSVPPRP	-0.0459
RRIRARPPRLPRPRPRPNRGPRP	0.108
RRIRQRPPRLPRPRPRPFQFPRP	-0.252
RRIRIRPPRLPRPRPRPMSNPRP	0.115
RRIRTRPPRLPRPRPRPYREPRP	-0.196
RRIRIRPPRLPRPRPRPKLQPRP	0.173
RRIRIRPPRLPRPRPRPEYTPRP	0.0624
RRIRMRPPRLPRPRPRPSIGPRP	-0.00737
RRIRLRPPRLPRPRPRPPFDPRP	0.312
RRIRQRPPRLPRPRPRPEDVPRP	-0.0612
RRIRFRPPRLPRPRPRPYFQPRP	-1.44
RRIRVRPPRLPRPRPRPALRPRP	0.306
RRIRSRPPRLPRPRPRPPTKPRP	0.0856
RRIRDRPPRLPRPRPRPLSIPRP	-0.0668
RRIRCRPPRLPRPRPRPYTTPRP	-0.97
RRIRSRPPRLPRPRPRPYNNPRP	-0.785
RRIRHRPPRLPRPRPRPVDQPRP	0.00586
RRIRKRPPRLPRPRPRPSIMPRP	-0.195
RRIRSRPPRLPRPRPRPQFWPRP	0.268

Sequence	shrunken log2 fold change
RRIRMRPPRLPRPRPRPRYEPRP	-0.0771
RRIRMRPPRLPRPRPRPAYNPRP	-0.236
RRIRCRPPRLPRPRPRPCEFPRP	-0.0925
RRIRQRPPRLPRPRPRPFNFPRP	-0.16
RRIRHRPPRLPRPRPRPMGPPRP	0.0818
RRIRIRPPRLPRPRPRPQLDPRP	-0.138
RRIRVRPPRLPRPRPRPLYAPRP	-0.154
RRIRWRPPRLPRPRPRPSQPPRP	-0.0613
RRIRVRPPRLPRPRPRPLFCPRP	-0.103
RRIRGRPPRLPRPRPRPYVRPRP	-0.51
RRIRGRPPRLPRPRPRPYSTPRP	0.037
RRIRWRPPRLPRPRPRPCLIPRP	-0.151
RRIRFRPPRLPRPRPRPSAEPRP	0.0747
RRIRRRPPRLPRPRPRPITPPRP	0.243
RRIRWRPPRLPRPRPRPCFQPRP	-0.222
RRIRYRPPRLPRPRPRPDTGPRP	-0.808
RRIRVRPPRLPRPRPRPWDQPRP	-0.00149
RRIRERPPRLPRPRPRPKCLPRP	-0.0209
RRIRCRPPRLPRPRPRPFATPRP	0.287
RRIRYRPPRLPRPRPRPNFQPRP	-0.578
RRIRQRPPRLPRPRPRPRYTPRP	-0.126
RRIRPRPPRLPRPRPRPVCKPRP	0.0717
RRIRVRPPRLPRPRPRPWVAPRP	-0.00183
RRIRVRPPRLPRPRPRPPRRPRP	0.491
RRIRKRPPRLPRPRPRPIKRPRP	0.0734

Sequence	shrunken log2 fold change
RRIRQRPPRLPRPRPRPEYTPRP	-0.11
RRIRVRPPRLPRPRPRPHKTPRP	-0.127
RRIRKRPPRLPRPRPRPRCHPRP	0.237
RRIRSRPPRLPRPRPRPMQNPRP	0.22
RRIRLRPPRLPRPRPRPWCAPRP	-0.0114
RRIRQRPPRLPRPRPRPSTVPRP	-0.534
RRIRDRPPRLPRPRPRPQHLPRP	-0.444
RRIRYRPPRLPRPRPRPVICPRP	-0.0887
RRIRRRPPRLPRPRPRPYGAPRP	-0.171
RRIRVRPPRLPRPRPRPYYCPRP	-0.513
RRIRIRPPRLPRPRPRPFAKPRP	-0.295
RRIRCRPPRLPRPRPRPHGLPRP	-0.0989
RRIRFRPPRLPRPRPRPVLMPRP	-0.13
RRIRWRPPRLPRPRPRPCWSPRP	-0.106
RRIRYRPPRLPRPRPRPQAKPRP	-0.0419
RRIRCRPPRLPRPRPRPLLYPRP	-0.572
RRIRLRPPRLPRPRPRPGKNPRP	-0.304
RRIRGRPPRLPRPRPRPWSVPRP	-0.131
RRIRYRPPRLPRPRPRPEMKPRP	0.206
RRIRTRPPRLPRPRPRPKWGPRP	0.118
RRIRTRPPRLPRPRPRPVGEPRP	-0.0292
RRIRHRPPRLPRPRPRPIWMPRP	-0.0859
RRIRNRPPRLPRPRPRPRYYPRP	-0.705
RRIRIRPPRLPRPRPRPWHQPRP	-0.00186
RRIRTRPPRLPRPRPRPKMPPRP	0.158

Sequence	shrunken log2 fold change
RRIRYRPPRLPRPRPRPWCKPRP	-0.00141
RRIRQRPPRLPRPRPRPEWVPRP	3.27
RRIRGRPPRLPRPRPRPDCLPRP	0.975
RRIRDRPPRLPRPRPRPWDFPRP	0.238
RRIRYRPPRLPRPRPRPEQKPRP	0.0039
RRIRIRPPRLPRPRPRPSLNPRP	-0.595
RRIRWRPPRLPRPRPRPTLPPRP	0.128
RRIRMRPPRLPRPRPRPEMMPRP	0.316
RRIRNRPPRLPRPRPRPPWAPRP	0.38
RRIRRRPPRLPRPRPRPDSMPRP	-0.251
RRIRLRPPRLPRPRPRPLIKPRP	-0.273
RRIRSRPPRLPRPRPRPNFQPRP	-0.089
RRIRERPPRLPRPRPRPYFYPRP	-0.757
RRIRQRPPRLPRPRPRPNAIPRP	-0.393
RRIRFRPPRLPRPRPRPNTAPRP	-0.986
RRIRRRPPRLPRPRPRPEECPRP	0.00164
RRIRMRPPRLPRPRPRPTKWPRP	0.445
RRIRRRPPRLPRPRPRPQWHPRP	0.181
RRIRERPPRLPRPRPRPNFTPRP	-0.111
RRIRVRPPRLPRPRPRPWHWPRP	-0.0605
RRIRFRPPRLPRPRPRPQFQPRP	0.0151
RRIRFRPPRLPRPRPRPTDYPRP	-0.578
RRIRDRPPRLPRPRPRPWFRPRP	-0.44
RRIRCRPPRLPRPRPRPRIMPRP	-0.293
RRIRTRPPRLPRPRPRPYEAPRP	-0.966

Sequence	shrunken log2 fold change
RRIRWRPPRLPRPRPRPRNWPRP	0.172
RRIRPRPPRLPRPRPRPFDEPRP	-0.0622
RRIRPRPPRLPRPRPRPVSEPRP	-0.0288
RRIRMRPPRLPRPRPRPFWHPRP	-0.00226
RRIRPRPPRLPRPRPRPEVWPRP	0.5
RRIRNRPPRLPRPRPRPCHKPRP	-0.00663
RRIRSRPPRLPRPRPRPCQLPRP	-0.163
RRIRRRPPRLPRPRPRPESHPRP	0.589
RRIRMRPPRLPRPRPRPCSHPRP	-0.167
RRIRPRPPRLPRPRPRPRVWPRP	0.482
RRIRLRPPRLPRPRPRPMMYPRP	-0.0922
RRIRKRPPRLPRPRPRPRGYPRP	0.166
RRIRCRPPRLPRPRPRPCWYPRP	0.0339
RRIRYRPPRLPRPRPRPAQTPRP	0.0654
RRIRNRPPRLPRPRPRPLMLPRP	-0.842
RRIRCRPPRLPRPRPRPTMWPRP	0.259
RRIRGRPPRLPRPRPRPKAHPRP	0.625
RRIRRRPPRLPRPRPRPPFKPRP	0.321
RRIRQRPPRLPRPRPRPMILPRP	-0.109
RRIRYRPPRLPRPRPRPLDVPRP	0.0153
RRIRPRPPRLPRPRPRPPMLPRP	0.18
RRIRNRPPRLPRPRPRPSQKPRP	-0.0723
RRIRHRPPRLPRPRPRPVMHPRP	0.000945
RRIRKRPPRLPRPRPRPDRSPRP	-0.231
RRIRNRPPRLPRPRPRPSHMPRP	-0.883

Sequence	shrunken log2 fold change
RRIRYRPPRLPRPRPRPECTPRP	0.0109
RRIRRRPPRLPRPRPRPGPCPRP	0.0678
RRIRPRPPRLPRPRPRPLFFPRP	0.0106
RRIRYRPPRLPRPRPRPCRYPRP	-0.212
RRIRCRPPRLPRPRPRPNNQPRP	-0.75
RRIRHRPPRLPRPRPRPFQSPRP	-0.00192
RRIRNRPPRLPRPRPRPCFPPRP	-0.312
RRIRNRPPRLPRPRPRPDWTPRP	-0.0129
RRIRSRPPRLPRPRPRPIAYPRP	-0.0673
RRIRTRPPRLPRPRPRPADHPRP	-0.0507
RRIRFRPPRLPRPRPRPAWGPRP	0.144
RRIRKRPPRLPRPRPRPTYAPRP	0.431
RRIRVRPPRLPRPRPRPRRTPRP	0.115
RRIRQRPPRLPRPRPRPFCVPRP	-0.0258
RRIRGRPPRLPRPRPRPCVVPRP	0.293
RRIRVRPPRLPRPRPRPSCWPRP	0.178
RRIRDRPPRLPRPRPRPIDHPRP	-0.273
RRIRLRPPRLPRPRPRPPNVPRP	0.0883
RRIRCRPPRLPRPRPRPEKMPRP	0.0239
RRIRCRPPRLPRPRPRPMWCPRP	0.148
RRIRIRPPRLPRPRPRPQWAPRP	0.0405
RRIRWRPPRLPRPRPRPSMMPRP	0.157
RRIRARPPRLPRPRPRPSHSPRP	-0.101
RRIRGRPPRLPRPRPRPNTDPRP	0.197
RRIRERPPRLPRPRPRPRIYPRP	-0.194
